The numbers were not newly measured in paper PMC5399307, which cites them from elsewhere.

The series has as its target ezrin FERM (Homo sapiens) (UniProt P15311).
Sequence of UniProt P15311 (P15311 1-299): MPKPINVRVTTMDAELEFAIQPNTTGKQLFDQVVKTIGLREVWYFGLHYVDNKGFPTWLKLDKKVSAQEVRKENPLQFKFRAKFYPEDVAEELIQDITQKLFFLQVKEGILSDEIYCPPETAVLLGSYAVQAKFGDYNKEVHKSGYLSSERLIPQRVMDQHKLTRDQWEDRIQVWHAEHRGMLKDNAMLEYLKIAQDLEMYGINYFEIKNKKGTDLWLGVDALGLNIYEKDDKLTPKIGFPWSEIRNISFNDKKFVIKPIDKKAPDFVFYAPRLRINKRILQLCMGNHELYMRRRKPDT

For orientation: Kd means the concentration at which binding is half-saturated. With NHERF1 (from UniProt O14745), the Kd is 51 nM.
